B1: Maternal embryonic leucine zipper kinase (Homo sapiens), Q14680 (parent)
chain: MKDYDELLKYYELHETIGTGGFAKVKLACHILTGEMVAIKIMDKNTLGSDLPRIKTEIEALKNLRHQHICQLYHVLETANKIFMVLEYCPGGELFDYIISQDRLSEEETRVVFRQIVSAVAYVHSQGYAHRDLKPENLLFDEYHKLKLIDFGLCAKPKGNKDYHLQTCCGSLAYAAPELIQGKSYLGSEADVWSMGILLYVLMCGFLPFDDDNVMALYKKIMRGKYDVPKWLSPSSILLLQQMLQVDPKKRISMKNLLNHPWIMQDYNYPVEWQSKNPFIHLDDDCVTELSVHHRNNRQTMEDLISLWQYDHLTATYLLLLAKKARGKPVRLRLSSFSCGQASATPFTDIKSNNWSLEDVTASDKNYVAGLIDYDWCEDDLSTGAATPRTSQFTKYWTESNGVESKSLTPALCRTPANKLKNKENVYTPKSAVKNEEYFMFPEPKTPVNKNQHKREILTTPNRYTTPSKARNQCLKETPIKIPVNSTGTDKLMTGVISPERRCRSVELDLNQAHMEETPKRKGAKVFGSLERGLDKVITVLTRSKRKGSARDGPRRLKLHYNVTTTRLVNPDQLLNEIMSILPKKHVDFVQKGYTLKCQTQSDFGKVTMQFELEVCQLQKPDVVGIRRQRLKGDAWVYKRLVEDILSSCKV

Variants of: B1
Conditions: with BCL2L14, Q9BZR8
Sequence of BCL2L14, Q9BZR8 (Q9BZR8 whole entry): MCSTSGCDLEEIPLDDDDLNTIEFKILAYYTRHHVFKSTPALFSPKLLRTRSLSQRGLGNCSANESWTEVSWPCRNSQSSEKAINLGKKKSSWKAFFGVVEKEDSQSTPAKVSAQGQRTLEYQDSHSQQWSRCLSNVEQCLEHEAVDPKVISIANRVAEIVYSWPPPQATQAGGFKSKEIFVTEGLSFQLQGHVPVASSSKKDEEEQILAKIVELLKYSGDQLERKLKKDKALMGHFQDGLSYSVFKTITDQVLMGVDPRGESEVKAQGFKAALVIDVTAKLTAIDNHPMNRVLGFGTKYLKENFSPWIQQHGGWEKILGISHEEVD
For D150A, the “effect of a mutation on the interaction” value was “disrupting interaction”.

— IntAct's records for PubMed 17280616
